Where “and” joins values, the source holds several entries; their conditions need not be identical. Identical values can stand only once. Like-named read-outs stand apart in the source and are kept apart here. Marks after values point to notes of the source that are not given here.
B1: huC1H1-V1: humanized C1H1 anti-CD40 antibody, VH SEQ ID NO: 20 X1=A, VL SEQ ID NO: 24 X1=K X2=F, human IgG2/κ (antibody, V domains shown)
VH: EVQLVESGGGLVKPGGSLRLSCAASGFTFSNYGISWVRQAPGKGLEWVXSISSGGDNTYYPDNVKGRFTISRDNAKNSLYLQMNSLRAEDTAVYYCARAGEKAMDYWGQGTLVTVSS
VL: EIVLTQSPATLSLSPGERATLSCRASQTINNNLHWYQQKPGQAPRLLIXYASQSISGIPARFSGSGSGTDFTLTISSLEPEDFAVYXCQQFSSWPLTFGGGTKVEIK
modifications: not fully specified; human IgG2/kappa constant regions; VH of huC1H1-V1 to huC1H1-V4; VARIANT 49 X can be A or S; VL of huC1H1-V1 to huC1H1-V4; VARIANT 49 X can be K or Y; VARIANT 87 X can be F or Y
B2: huC1H1-V2: humanized C1H1 anti-CD40 antibody, VH SEQ ID NO: 20 X1=S, VL SEQ ID NO: 24 X1=K X2=F, human IgG2/κ (antibody, V domains shown)
VH: EVQLVESGGGLVKPGGSLRLSCAASGFTFSNYGISWVRQAPGKGLEWVXSISSGGDNTYYPDNVKGRFTISRDNAKNSLYLQMNSLRAEDTAVYYCARAGEKAMDYWGQGTLVTVSS
VL: EIVLTQSPATLSLSPGERATLSCRASQTINNNLHWYQQKPGQAPRLLIXYASQSISGIPARFSGSGSGTDFTLTISSLEPEDFAVYXCQQFSSWPLTFGGGTKVEIK
modifications: not fully specified; variable positions X1=S; VL X1=K X2=F; IgG2/kappa constant; VH of huC1H1-V1 to huC1H1-V4; VARIANT 49 X can be A or S; VL of huC1H1-V1 to huC1H1-V4; VARIANT 49 X can be K or Y; VARIANT 87 X can be F or Y

Experiments:
Human CD40-his = biological target: T1, Human CD40-his (Homo sapiens, UniProt P25942); assay: Octet kinetics of humanized C1H1 antibodies; type: binding; conditions: Table 3, Octet; for Ka: humanized antibodies in cell supernatant, chimeric and benchmark 5 μg/mL
T1 construct: His; purchased Acro biosystems CD0-H5228
Procedure: After six days of culture in a shake flask, the cell supernatant containing the humanized antibodies huC1H1-V1 to huC1H1-V4 was harvested and the binding affinity of the antibodies to human CD40 was determined on an Octet system (Fortebio, Octet RED 96) according to the following procedures. Briefly, an anti-human IgG Fc capture (AHC) biosensor (from ForteBio) was pre-soaked in a 10 mM glycine solution (pH 1.5) for 3 s, and then soaked in a running buffer (PBST containing 0.5% w/v of BSA) for 3 s. The pre-soaking and soaking procedures were repeated 3 times. Then, the sensor was soaked in the cell supernatant containing the humanized anti-CD40 antibody, chimeric antibody C1H1 dissolved in HBS-EP^+ buffer at a concentration of 5 μg/mL, or the benchmark dissolved in HBS-EP^+ buffer at a concentration of 5 μg/mL for 120 s, and then soaked in the running buffer for 5 min. The new baseline was run in the running buffer for 180 s. The sensor was then soaked for 120 s in human CD40-his protein (Acro biosystems, Cat. No. CD0-H5228) 2-fold serially diluted from 40 nM in the running buffer and for 10 min in the running buffer […]. Finally, the sensor was pre-soaked in a 10 mM glycine solution (pH 1.5) for 3 s, and then soaked in the running buffer for 3 s. The pre-soaking and soaking procedures were repeated 3 times. The association and dissociation curves were fitted to a 1:1 Langmuir binding model using ForteBio Data Analysis 8.1.

[1] = test system: CD40 signal transduction in 293T-NF-κB-Luc-CD40 cells; assay: Cell-based reporter assay; parameters: species or system human; conditions: in words, FIGS. 2A-2C and 7
From the text: The agonistic activity of the anti-CD40 antibody of the present application was further determined in a CD40 expression reporter cell line 293T-NF-κB-Luc-CD40, which stably expresses full-length human CD40 (uniprot No. P25942-1, SEQ ID NO: 30). According to the instructions of lipofectamine 3000 transfection reagent (Thermo Fisher), a pGL4.32 [luc2P NF-κB-RE Hygro] vector (Promega, GenBank® Accession No. EU581860) and a pCMV-T-P plasmid (with a CD40 coding sequence inserted between the EcoRI and Khal loci) were transfected into 293T cells in sequence to prepare 293T-NF-κB-Luc-CD40 cells.
Briefly, 293T-NF-κB-Luc-CD40 cells at the log phase were resuspended in DMEM medium (Gibco Inc., Cat. No. 10566-016) containing 10% of FBS (Gibco Inc., Cat. No. 10099-141), and seeded on a 384-well plate (Corning, Cat. No. 3707) at 20 μL/well (containing 5×10^3 cells). Then, the anti-CD40 antibody of the present application or the controls (including an in-house prepared anti-CD22 antibody as a negative control) serially 3-fold diluted from 200 nM in the medium was added at 20 μL per well and incubated at 37° C. for 6 h. […] The chemiluminescence values were measured using Tecan Infinit® 200 Pro. Data were analyzed using Graphpad Prism software, and EC50 values were obtained.

[2] = test system: human B-cell lymphoma Ramos cells; assay: In vivo anti-tumor efficacy, human B-cell lymphoma Ramos xenograft model; conditions: for Tumor volume on day 0: baseline at grouping; for Tumor volume on day 0 / Tumor volume on day 14: mean ± standard error; for TGI: day 14; for T/C: day 14 vs isotype control
Procedure: The in vivo anti-tumor activity of antibody huC1H1-V2 was measured in NOD-SCID mice. Briefly, 3×10^7 human B-cell lymphoma Ramos cells (Chinese Academy of Sciences) were injected subcutaneously in the right axilla of NOD-SCID mice. The tumor volume was measured using an electronic vernier caliper and calculated according to the formula (length×width^2)/2. When the mean tumor volume reached about 100-150 mm^3, 40 tumor-bearing mice were selected and randomly divided into 4 groups (10 mice per group), with the date of grouping designated as day 0. According to the administration regimen shown in Table 6, the mice were intravenously administered with the isotype control antibody (anti-HEL-Human IgG2 Isotype-control, also referred to as IgG2, Biointron Inc.) or antibody huC1H1-V2 via tail veins since day 0.

[3] = Protein thermal shift assay (GloMelt); type: physicochemical; conditions: 25-99 °C melt curve
Procedure: A thermal stability assay was also conducted on humanized antibody huC1H1-V2. Tm (melting temperature) was determined by protein thermal shift assay using the GloMelt™ thermal shift protein stability kit (Biotium, Cat. No. 33022-T). Briefly, the GloMelt™ dye was thawed to room temperature. The vial containing the dye was vortexed and centrifuged. Then, 5 μL of the 200× dye solution was added to 95 μL of PBS to prepare a 10× dye solution. 2 μL of the 10× dye solution and 10 μg of the humanized antibody were added to the reaction system, and PBS was added to bring the total reaction volume to 20 μL. The centrifuge tubes containing the dye and the antibodies were centrifuged briefly and placed in a real-time PCR thermal cycler (Roche, LightCycler 480 II) in which the parameters of the Melt Curve program are shown in Table 4.

T1 sequence (P25942 21-277): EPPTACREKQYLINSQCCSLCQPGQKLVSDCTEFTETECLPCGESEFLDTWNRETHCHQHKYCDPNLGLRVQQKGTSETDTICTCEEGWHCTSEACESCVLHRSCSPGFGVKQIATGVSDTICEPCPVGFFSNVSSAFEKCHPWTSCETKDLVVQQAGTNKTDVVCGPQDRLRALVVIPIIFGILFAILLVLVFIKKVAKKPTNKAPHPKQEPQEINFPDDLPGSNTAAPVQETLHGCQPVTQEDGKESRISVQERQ

Molecule	Kd (Human CD40-his; dissociation rate) [s⁻¹]	Ka (Human CD40-his) [M⁻¹ s⁻¹]	Kd (Human CD40-his; read-out: KD) [nM]	Agonistic activity (activation of CD40 signal transduction) [1]	Tumor volume on day 0 ([2]; 1.5 mg/kg i.v. Q2D × 8 doses) [mm^3]	Tumor volume on day 14 ([2]; 1.5 mg/kg i.v. Q2D × 8 doses)	TGI ([2]; 1.5 mg/kg i.v. Q2D) [%]	T/C ([2]; 1.5 mg/kg i.v. Q2D) [%]	Tumor volume on day 0 ([2]; 5 mg/kg i.v. Q2D × 8 doses) [mm^3]	Tumor volume on day 14 ([2]; 5 mg/kg i.v. Q2D × 8 doses)	TGI ([2]; 5 mg/kg i.v. Q2D) [%]	T/C ([2]; 5 mg/kg i.v. Q2D) [%]	Tumor volume on day 0 ([2]; 15 mg/kg i.v. Q2D × 8 doses) [mm^3]	Tumor volume on day 14 ([2]; 15 mg/kg i.v. Q2D × 8 doses)	TGI ([2]; 15 mg/kg i.v. Q2D) [%]	T/C ([2]; 15 mg/kg i.v. Q2D) [%]	Tolerability (weight loss or other symptoms) ([2]; 1.5, 5, 15 mg/kg i.v. Q2D × 8 doses, tumor-bearing mice)	Tm (melting temperature) [3] [°C]
B1	0.00128	1.41e+06	0.904	higher than those of BM1 and BM2	–	–	–	–	–	–	–	–	–	–	–	–	–	–
B2	0.000981	1.65e+06	0.596	higher than those of BM1 and BM2	111.1 ± 2.0	431.9 ± 58.0*** mm^3	88	12	114.5 ± 1.5	230.2 mm^3 and 230.2 ± 36.3*** mm^3	96	4	114.3 ± 1.3	242.5 ± 22.1*** mm^3	95	5	well tolerated	70

Reference: patent US20240398942A1, “USE OF ANTI-CD40 ANTIBODY” (CHIA TAI TIANQING PHARMACEUTICAL GROUP CO., LTD., priority 2021, published 2024)
